US20210188989A1 (SYSTIMMUNE, published 2021)

T1: recombinant cynomolgus 4-1BB extracellular domain protein (cynomolgus, UniProt A9YYE7 24-186)
T1 construct: Analyte in the Octet assay
T1 sequence: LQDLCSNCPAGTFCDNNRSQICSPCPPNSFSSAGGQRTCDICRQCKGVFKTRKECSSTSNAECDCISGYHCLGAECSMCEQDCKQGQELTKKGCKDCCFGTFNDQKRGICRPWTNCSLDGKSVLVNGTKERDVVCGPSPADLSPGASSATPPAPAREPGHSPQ

B1: 418E10 (antibody, human IgG1, kappa, V domains shown)
VH: QSLEESGGRLVTPGTPLTLTCTASDFSLSTYYMSWVRQAPGKGLEWIGSIYDSGAAYYATWAKGRFTISRTSTTVDLRMTSLTAADTATYFCARDPINNAIWGQGTLVTVSS
VL: ALVMTQTPSPVSAAVGGTVTINCQASQSIGSNLNWYQQKPGQPPKLLIYYVSTLASGVPSRFKGSGSGTEYTLTISGVQCDDAATYYCLGVWNYWGDDGTAFGGGTEVEVKR
notes: one of the 34 chimeric antibodies; rabbit variable regions on human IgG1 and human kappa; also called 418E10 chimeric rabbit/human IgG
B2: 416G1 (antibody, human IgG1, kappa, V domains shown)
VH: QSVEESGGRLVTPGTPLTLTCTVSGFTINSYHMIWVRQAPGEGLEYIGFINDGGFTYYASWAKGRFIISRTSTTVDLKMTSLTVADTATYFCARGVDGTSYPDLWGPGTLVTVSS
VL: DVVMTQTPASVSEPVGGAVTIKCQASQSIGSDLAWYQQKPGQPPKLLIYRASTLASGVSSRFKGSGSGTEFTLTISDLECADAATYYCQCIYYGSDDVIYHTFGGGTEVVVKR
notes: one of the 34 chimeric antibodies; rabbit variable regions on human IgG1 and human kappa; also called 416G1 chimeric rabbit/human IgG
B3: 419D9 (antibody, human IgG1, kappa, V domains shown)
VH: QSLEESGGDLVKPGASLTLTCTASGFSFSSRHYMCWVRQAPGEGLEWIACIYTGSSGTPHYASWAKGRFTISQTSSTTVTLQMTSLTAADTATYFCSSEGNLWGPGTLVTVSS
VL: AQVLTQTASPVSAAVGGTVTINCQSSQSVYSNWLSWYQQKPGQPPKRLIYSASTLASGVPSRFKGSGSGTQFTLTISDLECDDAATYYCAGGYNTVTDTFAFGRGTEVEVKR
notes: one of the 34 chimeric antibodies; rabbit variable regions on human IgG1 and human kappa; also called 419D9 chimeric rabbit/human IgG
B4: 418E10 VHv1VLv1 (antibody, human IgG1, kappa, V domains shown)
VH: EVQLVESGGGLVQPGGSLRLSCAASGFSLSTYYMSWVRQAPGKGLEWIGSIYDSGAAYYATSAKGRFTISRDNSKNTLYLQMNSLRAEDTAVYYCARDPINNAIWGQGTLVTVSS
VL: DIQMTQSPSTLSASVGDRVTITCQASQSIGSNLNWYQQKPGKAPKLLIYYVSTLASGVPSRFSGSGSGTEFTLTISSLQPDDFATYYCLGVWNYWGDDGTAFGGGTKVEIKR
notes: one of the humanized antibodies; also called 418E10 humanized
B5: 418E4 VHv1VLv1 (antibody, human IgG1, kappa, V domains shown)
VH: EVQLVESGGGLVQPGGSLRLSCAASGFSLSSYYMSWVRQAPGKGLEWIGSIYASGSAYYASSAKGRFTISRDNSKNTLYLQMNSLRAEDTAVYYCARDPINNDIWGQGTLVTVSS
VL: DIQMTQSPSTLSASVGDRVTITCQASQSIATNLNWYQQKPGKAPKLLIYYTSSLASGVPSRFSGSGSGTEFTLTISSLQPDDFATYYCLGVWNYWGDDGTAFGGGTKVEIKR
notes: one of the humanized antibodies; also called 418E4 humanized
B6: 420H5 VHv3VLv3 (antibody, human IgG1, kappa, V domains shown)
VH: QSLVESGGGLVQPGGSLRLSCAASGFSFSSNYWICWVRQAPGKGLEWIACIYVGSSGDTYYASSAKGRFTISRDNSKNTLYLQMNSLRAEDTAVYYCARDSSSYYMFNLWGQGTLVTVSS
VL: ALVMTQSPSTLSASVGDRVTINCQASEDIDTYLAWYQQKPGKAPKLLIFYASDLASGVPSRFSGSGSGTEFTLTISSLQPDDFATYYCQGGYYTSSADTRGAFGGGTKVEIKR
notes: one of the humanized antibodies; also called 420H5 humanized
B7: 470C6 VHv3VLv3 (antibody, human IgG1, kappa, V domains shown)
VH: QSLVESGGGLVQPGGSLRLSCAASGFSFTSSYYMCWVRQAPGKGLEWIACIYTGSSGSTYYANSAKGRFTISRDNSKNTLYLQMNSLRAEDTAVYYCARDSSSYYMFNLWGQGTLVTVSS
VL: ALVMTQSPSTLSASVGDRVTINCQASEDIDNYLAWYQQKPGKAPKLLIFYASDLASGVPSRFSGSGSGTEFTLTISSLQPDDFATYYCQGGYYTSSTDTRGAFGGGTKVEIKR
notes: one of the humanized antibodies; also called 470C6 humanized
B8: 464C11 VHv1VLv1 (antibody, human IgG1, kappa, V domains shown)
VH: EVQLVESGGGLVQPGPSLRLSCTASGFSLSHYWMTWVRQAPGKGLEYIGFINVGGDTSYASSVKGRFTISRDDSKSIAYLQMNSLKTEDTAVYYCGRGGLTFGWDLWGQGTLVTVSS
VL: DIQMTQSPSTLSASVGDRVTITCQSSQSVYSNSFLSWYQQKPGKAPKLLIYSASDLASGVPSRFSGSGSGTEFTLTISSLQPDDFATYYCAGVYSDNTYVFGGGTKVEIKR
notes: one of the humanized antibodies; also called 464C11 humanized
B9: 466F6 VHv2VLv5 (antibody, human IgG1, kappa, V domains shown)
VH: RSLVESGGGLVQPGGSLRLSCTASGFTISSYHMQWVRQAPGKGLEYIGTISSGGNVYYASSARGRFTISRPSSKNTVDLQMNSLRAEDTAVYYCARDSGYSDPMWGQGTLVTVSS
VL: DVVMTQSPSSVSASVGDRVTITCQASQNIRTYLSWYQQKPGKAPKLLIYAAANLASGVPSRFSGSGSGTDFTLTISDLEPGDAATYYCQSTYLGTDYVGGAFGGGTKVEIKR
notes: one of the humanized antibodies; also called 466F6 humanized

molecular target: T2, recombinant human 4-1BB extracellular domain protein (human, UniProt Q07011 24-186); assay: Octet BLI; chimeric IgG from transfection supernatant on anti-human Fc biosensor; recombinant human 41BB; column kdis(1/s) Human
T2 construct: extracellular domain; Analyte in the Octet assay; also called CD137; TNFRSF9
Excerpt: (§1) The heavy and light chain expression plasmids generated from each well were transiently co-transfected to produce rabbit/human chimeric antibodies. Recombinant antibody supernatants were confirmed to contain antibodies specific for human and cynomolgus 4-1BB using bio-layer interferometry analysis on a ForteBio Octet Red 96 instrument. Anti-human Fc biosensors (Pall ForteBio) were used to capture antibodies in the supernatants. Association to human or cynomolgus 4-1BB was observed by real-time interferometry by placing the biosensors in wells containing recombinant human or cynomolgus 4-1BB extracellular domain protein. Dissociation was measured after transfer of the biosensors into wells containing 10× kinetics buffer (Pall ForteBio). The software provided by the manufacturer was used to analyze the interferometry data. A summary of the primary BCC screening data and the corresponding screening data for 34 recombinant chimeric rabbit/human IgG antibodies is shown in FIG. 2.

koff | Binder
0.0011 s⁻¹ | B1
0.0014 s⁻¹ | B2
0.00063 s⁻¹ | B3

molecular target: T2, recombinant human 4-1BB extracellular …; assay: Octet, binding off-rate kdis; the sheet names no species of 41BB, paragraph 86: 'binding to human and recombinant 4-1BB by octet assay'

koff | Binder
0.000958 s⁻¹ | B4
0.00277 s⁻¹ | B5
0.00178 s⁻¹ | B6
0.00183 s⁻¹ | B7
0.000784 s⁻¹ | B8
0.00254 s⁻¹ | B9

molecular target: T1, recombinant cynomolgus 4-1BB …; assay: Octet BLI; chimeric IgG from transfection supernatant on anti-human Fc biosensor; recombinant cynomolgus 41BB; column kdis(1/s) Cynomolgus
Excerpt: as §1

koff | Binder
0.0015 s⁻¹ | B1
0.0019 s⁻¹ | B2
0.0014 s⁻¹ | B3
